Assay results as given in patent US20110047631A1 (MEDICAL COLLEGE OF GEORGIA RESEARCH INSTITUTE, published 2011).

Biological target: T1, purified wild-type tau441 (UniProt P10636-8 1-441)
T1 construct: The 441-residue isoform, not the canonical UniProt entry length; Used at 2 uM; also called purified tau 441; purified tau
Assay: purified wild-type tau441 and purified Hsp110 incubated together, immunoprecipitation, immunoblot
Description: As the data in FIG. 6 indicates, Hsp110 is present in tau immunocomplexes; however, it is not clear whether the interaction is direct or indirect. In order to determine whether Hsp110 interacts with tau directly, we incubated purified wild-type tau441 and Hsp110 and subjected them to immunoprecipitation analyses.

T1 sequence (P10636 other isoform, or with tags, fused parts or gaps limits assumed): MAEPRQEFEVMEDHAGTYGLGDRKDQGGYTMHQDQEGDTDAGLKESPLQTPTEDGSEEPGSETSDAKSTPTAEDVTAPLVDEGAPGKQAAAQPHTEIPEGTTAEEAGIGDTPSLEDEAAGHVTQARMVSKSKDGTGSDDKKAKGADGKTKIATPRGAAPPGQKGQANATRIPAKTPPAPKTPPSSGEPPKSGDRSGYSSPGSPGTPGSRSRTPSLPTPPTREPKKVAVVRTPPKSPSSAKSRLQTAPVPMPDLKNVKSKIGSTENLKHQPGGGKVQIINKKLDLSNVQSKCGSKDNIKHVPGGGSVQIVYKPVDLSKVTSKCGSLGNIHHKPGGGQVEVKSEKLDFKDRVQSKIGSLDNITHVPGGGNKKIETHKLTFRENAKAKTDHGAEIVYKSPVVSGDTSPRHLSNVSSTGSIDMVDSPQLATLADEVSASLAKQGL

B1: purified full-length Hsp110 (human) (other, UniProt Q92598 2-858, looked up)
chain: SVVGLDVGSQSCYIAVARAGGIETIANEFSDRCTPSVISFGSKNRTIGVAAKNQQITHANNTVSNFKRFHGRAFNDPFIQKEKENLSYDLVPLKNGGVGIKVMYMGEEHLFSVEQITAMLLTKLKETAENSLKKPVTDCVISVPSFFTDAERRSVLDAAQIVGLNCLRLMNDMTAVALNYGIYKQDLPSLDEKPRIVVFVDMGHSAFQVSACAFNKGKLKVLGTAFDPFLGGKNFDEKLVEHFCAEFKTKYKLDAKSKIRALLRLYQECEKLKKLMSSNSTDLPLNIECFMNDKDVSGKMNRSQFEELCAELLQKIEVPLYSLLEQTHLKVEDVSAVEIVGGATRIPAVKERIAKFFGKDISTTLNADEAVARGCALQCAILSPAFKVREFSVTDAVPFPISLIWNHDSEDTEGVHEVFSRNHAAPFSKVLTFLRRGPFELEAFYSDPQGVPYPEAKIGRFVVQNVSAQKDGEKSRVKVKVRVNTHGIFTISTASMVEKVPTEENEMSSEADMECLNQRPPENPDTDKNVQQDNSEAGTQPQVQTDAQQTSQSPPSPELTSEENKIPDADKANEKKVDQPPEAKKPKIKVVNVELPIEANLVWQLGKDLLNMYIETEGKMIMQDKLEKERNDAKNAVEEYVYEFRDKLCGPYEKFICEQDHQNFLRLLTETEDWLYEEGEDQAKQAYVDKLEELMKIGTPVKVRFQEAEERPKMFEELGQRLQHYAKIAADFRNKDEKYNHIDESEMKKVEKSVNEVMEWMNNVMNAQAKKSLDQDPVVRAQEIKTKIKELNNTCEPVVTQPKPKIESPKLERTPNGPNIDKKEEDLEDKNNFGAEPPHQNGECYPNEKNSVNMDLD
notes: mature; used at 2 uM; also called purified Hsp110
B1: binds.
